Source: US20230242646A1 (JJP BIOLOGICS SP Z O O, published 2023)

Legend:
[1] = molecular target: T1, recombinant C-terminal polyhistidine-tagged human (extracellular) CD89 (Sino Biological) (human, UniProt P24071 22-227); assay: ELISA, coated rhuCD89
T1 construct: extracellular domain; bought protein; also called rhuCD89; soluble monomeric rhuCD89

[2] = molecular target: membrane human CD89 on ex vivo primary human neutrophilic granulocytes or monocytic U937 cells (human, UniProt P24071 22-287); assay: cell-based or functional assay
[3] = molecular target: T2, membrane-bound full-length human CD89 on HEK293F cells (human, UniProt P24071 22-287); assay: FACS HEK293F-huCD89, 10 ug/mL; competitor PE-MIP8a
T2 construct: 2 or transient transfectants; also called membrane human CD89; human FcaRI
Method: Then, 10 µL/tube (i.e., 0.1 × 10⁶ cells) of these cells were incubated with or without 100 µL purified mouse anti-human CD89 antibody at 10 µg/mL (in PBS/BSA/NaN₃) for 30 minutes at 4° C. […] After extensive washing in PBS/BSA/NaN₃, cells were fixed in 2% formaldehyde in PBS/BSA/NaN₃ for 30 minutes at 4° C.

[4] = molecular target: T3, chimeric bovine EC1-Fcgamma2R/human EC2-CD89 on HEK293F cells (bovine/human chimera); assay: FACS, transiently transfected HEK293F
T3 chain: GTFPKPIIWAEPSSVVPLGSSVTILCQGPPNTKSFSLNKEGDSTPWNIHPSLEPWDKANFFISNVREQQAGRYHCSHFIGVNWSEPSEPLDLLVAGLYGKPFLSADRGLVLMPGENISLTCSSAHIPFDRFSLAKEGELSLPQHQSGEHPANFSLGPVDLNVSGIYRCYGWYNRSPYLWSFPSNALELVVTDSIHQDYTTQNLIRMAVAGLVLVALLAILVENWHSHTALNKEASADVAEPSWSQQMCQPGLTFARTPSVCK
Method: (§1) To this end, transient transfected HEK293F cells were put at 10 × 10⁶ cells/mL in ice-chilled phosphate-buffered saline containing 0.1% BSA (Sigma)/0.05% NaN₃ (PBS/BSA/NaN₃) supplemented with 50 µg/mL human IgGs (blocking Fcy receptors; Sigma) for 10 minutes at 4° C. Then, 10 µL/tube (i.e., 0.1 × 10⁶ cells) of these cells were incubated with or without 100 µL purified mouse anti-human CD89 antibody at 10 µg/mL (in PBS/BSA/NaN₃) for 30 minutes at 4° C. […] After extensive washing in PBS/BSA/NaN₃, cells were subsequently incubated with 1:200 diluted PE-conjugated goat anti-mouse IgG Fcy-specific antibodies (Jackson ImmunoResearch) for 30 minutes at 4° C. After extensive washing in PBS/BSA/NaN₃, cells were fixed in 2% formaldehyde in PBS/BSA/NaN₃ for 30 minutes at 4° C.

[5] = molecular target: T4, chimeric human EC1-CD89/bovine EC2-Fcgamma2R (bovine TM and IC) on HEK293F cells (human/bovine chimera); assay: FACS, 10 µg/mL, transiently transfected HEK293F
T4 construct: also called human EC1-CD89 (version with bovine transmembrane-intracellular region)
Method: as §1

[6] = molecular target: T5, chimeric human EC1-CD89/bovine EC2-Fcgamma2R (human TM and IC) on HEK293F cells (human/bovine chimera); assay: FACS, 10 µg/mL, transiently transfected HEK293F
T5 construct: also called human EC1-CD89 (version with human transmembrane-intracellular region)
Method: as §1

[7] = molecular target: T2, membrane-bound full-length human CD89 …; assay: FACS, antibody before serum IgA on HEK293F-huCD89; IgA detected
Method: Then, 10 µL/tube (i.e., 0.1 x 10⁶ cells) of these cells were incubated with 50 µL titrated (in PBS/BSA/NaN₃) purified mouse anti-human CD89 antibody/tube for 30 minutes at 4° C. […] After extensive washing in PBS/BSA/NaN₃, 1:200 diluted PE-conjugated streptavidin (Jackson ImmunoResearch) was added, and incubated for 30 minutes at 4° C. After extensive washing in PBS/BSA/NaN₃, cells were fixed in 2% formaldehyde in PBS/BSA/NaN₃ for 30 minutes at 4° C.

[8] = molecular target: T1, recombinant C-terminal …; assay: ELISA, antibody before serum IgA on coated rhuCD89; IgA detected
Method: After extensive washing with PBS/0.05% Tween 20, plates were blocked with PBS/0.05% Tween 20/1% BSA (Roche) for 1 hour at RT. Subsequently, plates were incubated with 25 µL titrated (in block buffer) purified mouse anti-human CD89 antibody/well for 30 minutes at RT. […] After extensive washing in PBS/0.05% Tween 20, 1:10,000 diluted HRP-conjugated streptavidin (Jackson ImmunoResearch) was added, and incubated for 1 hour at RT, followed by a ready-to-use solution of TMB substrate (Invitrogen) for colorimetric detection.

EC50 [1]: 0.02 µg/mL
IC50 (read off the bars), binding of granulocytes to plate-bound serum IgA [Donor 2] [2]: ~0.4 µg/mL
% blocking of PE-MIP8a binding [3]: < 25%
binding result [4]: no binding (tested: 10 µg/mL)
binding result [5]: binds
binding result [6]: binds
IC50 (read off the curve) [7]: ~0.7 µg/mL
IC50 (read off the curve) [8]: ~0.06 µg/mL
B1: CD89/IgA blocking mouse anti-human CD89-specific antibody 10E7 (antibody, V domains shown)
VH: EVQLVESGGGLVQPGGSLKLSCAASGLTFSSYGMSWVRQTPDKRLELVATINGNGDITYYPDSVKGRFTISRDNAKNTLYLQMSSLKSEDTAMYYCARDYDYDYAMDYWGQGTSVTVSS
VL: DIQMTQSTSSLSASLGDSVTISCRASQDIINYLNWYQQKPDGTVKLLIYYTSRLHSGVPSRFSGSGSGTEYSLTVSNLEKEDIATYFCQQGKTLPYTFGGGTKLEIK
notes: biotinylated in the Octet assay; also called mouse 10E7
